We go through 47 sequences from the NTF2 design screens of Basanta et al. (2020).

The nature of this data set: protease stability score; higher = more stable; yeast display proteolysis, trypsin and chymotrypsin.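 Further: log10 excess protease needed over predicted unfolded state with 0 meaning unfolded.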

“EDENRSNIEDMIRAWNQNNPDEWRELADPNVKVQIGEKSIRGREEIAKDLKQMHKEIEVHFNLKRVRVQGDKAEVEMEFSNNHNGKPRSDNVVYDVLVDNGRIKSVKQNQVS” yielded a protease stability score of -0.141. For “EDENTRKFVQYLKILKDGNEQELKKDMDPNAHIKVGDKTLSGMDKITDDVRRKLEEMTVDFTTVSAKAENGRLDVNMSLNNEVNGRPRSDDVTIEVRIHNGKFDHIIYHMDPNRLKEVER” the value was -0.104; for “EDEVLKELLEAVRHNDPDKIKELIDPNARFRVGDKSLHGMEEAAEQYARMMKRVDHIQIDSMSAHGDTFTVDQRFHFDGRTLSVTIRIRIHNGRIEELVIEVRSEEDKKNLDNLLS”, -0.097; for “EDEVNKILEDVATAIRTGDPDRVVENLDPNAKVQVGDKTLDGQKEVREFFERNQREASVRLHVTSVHVNGDKVKMKANYQQNRNGNPDFKDVDVTAHAHNGKLKVMEHRRDG”, -0.451.

Regarding “EDEVRQRAEEFLKAWERGDPETLMRMADPNARFKIGDKEVHGREDYHREHKRQRDQMRYRLHSYEVSASGDKVHVDVSYNMNNNGQPNNSRQTFSARVDNGKIKELNVQSTG”, the protease stability score was -0.061. For the sequence “EDHTLREFQKNWQHNNPDELEKMMDPNVKIVIGDKKYHGKEEAKRINKQIVDQADHIDIRRVEVSGNKLEIRMVLNVNGNTRELVVIFKLHNGRIKHVEFKFTDERQKNFQEEMLQ”, the protease stability score amounted to 1.08. The sequence “EDKAKTLLQQYMEAVHQGDPKQVEEMLDPNAQVVIGDKSVRGQNQIQQMVRKLHQHARIDIHVKDLKADGNNVHLTFSQKVEVNGRPERDEATATMVVDNGRAQYLQIEMDETFQRQLEK” had a protease stability score of -0.341. “EDNRLQEIMEKFIRLMQTGDDHTAANLFDEDARIEYGDHSIRGREEFQKYAKELKDRVDHFDVQTIKNRGDEVHIDVNIHVDGKRVRVNMVVQAENGKVKKLRLDPEVVRHMEK” registered a protease stability score of 1.3. For “EDQVIRMVKELWKALRKNNPEKFKDLADKNARFEYGDKHVRGRENMQERMEQQVRDQEVDMRVERVEDRGDHVDVKFEKVVNHNGTPSSHSMTAVYVAENGRLKNVRVKETK” the value was -0.103; for “EDRAQENLHELLKAIQQGDEDSVESLLDKDVKIQVGDKYIHGRENYAEHVRKTRQEIRVNYRIESYSVHNGRAKMTFRANRDDNGKPETWKAQATMEVDNGRITFIHRNKRG”, -0.045. As for “EDRDKVRRAIKRMLDVMSTGDEDKLREYADENVKINVGDKDVHGREEAARFLKTHADQYDHIDQRIQDVKKENGQVEVRREMEATHNGHTHRDREHIVVEIRGDNMKIKSIQRQ”, the protease stability score was -0.409. For “EDRDQAKHIIKEIMRAIQTGDRKHAMRQVDPNVRIHVGDKVLEGREEFMKWVKDLRDDVDHFHLRIHDMHVENGQLTADAEFVVDHNGQRRKQRMDVVFLVHGDKVRLLRLQEK” the value was 1.4. Under “EDRERAKELVKRLTDAFRTNNPDDYVRQAPPDVTMQVGDKQYHGRSKVKEWIKQILDRVDHLKIELVDVKRSGEKLRFKAEYHYEHNGKTDRNTMEMVFTIQGDKMKIDDATQQ” stands 0.134; under “EDRHARRVANDFVRAVRKGDETRLKEQFDEDAEVQVGDTTYTGKERVVKHAQDFANSVDHLDVTDLKVNEDHASLSARVNINGRQDTIRIELRVHNGRLKRVNYDTQ”, -0.032; under “EDRQNQEVNKKAQKGDWQHLRELADKDVTLQVGDKQYHGREKFQELLKKLETSVDRFKVDSITFHNGKVKVRAQAVVNGQKIEFVIIITFHNGRAKSMRIQARDEDLEKELLKMLS”, 0.944. Under “EDTALKIARTLFDILESNNPDEFNKLADPNARVDVGDKKIHGREEIKKQMETEIQQLRVHYEIKRYDSRPNRAHVIADVEVNHNGQPQSHKLVMRLHFKNGKVTEIKFEYRK” stands -0.053; under “EDTFVRLVHQMWNDLERGNPEKFRENVDPNARIQVGDQTIHGREQAEEWAERLKRKLQFTVDVKSVTEEPGRIRMRANLINNHNGRPTTKHVIFLANETNGRIKTFRFRQDQ”, 0.103. As for “EEDAVDRARKMFENLKTGNEDHFKEQFDPNATIRIGDQKVHGMENLKDHMRKVRKHMRVDFRRVDIKAENGRIDIKARADFSVNGRPVSQHFTARAVVSNGRFKSFELQVSEEDEKKVKS”, the protease stability score worked out at 0.606. “EEDDQRRLQEWLSQGNFEHLAQNADKDAKASVGEYRVHGREQIKRFLERMQDRIDKVHYETVHFHNGVLRATFRFTVNGKQVVMQMRIEARGDKIKYIEMQARDEDNLKKWKELES” came in with a protease stability score of 1.03. As for “EEDELRKIKDLLRHGDFETLNRQAPPDATQTVGDQEFTGWEKLHKIWKDLKDRIDHLDWKRITISGETIEARYEFDVDGQRIDMSFRMEVHNGRIQHLEQRATDSDLQKRLKDVIE”, the protease stability score stood at 0.069. For “EEDILKRVKHMLKQLETGNEKEYEKNIDPNVKIKVGDKEIRGREEASRYWHRLRHHMRIRVDVKSMNVKNGQVNMNATVTVDVNGRPVRFEFRMVIHATNGTIKEVTLQVDPDQIRKQLG” the value was 1.61; for “EEDKAKEAKEIWDKNNERDLRKKADKDARADVGDKKVHGMETAVQMWSKVRQHVDHVQYHDLKIQGETIRIDFVLHWNGRTVRAQVEFKVSNGQLVDFKLKFTDPDQERKLHEMQK”, 0.123. “EEDKLEHMTKLMTQNDEDRWEELADKNVRIEVGDYRVNGREQASSYLKLLKDQVDDYTVNHIHYQGDKIVANVQASVNGRRFRFQIRITVHNGRLKSMMVKVTDEHFKHVLKNIVG”: the protease stability score turned out to be 0.698. Take “EEDLHEAFERIKHALEHGDPKQVQNQFDPNVEVIIGNKTLHGRETLKDEVKKLQDEMQITWRSITINVDGDRVVVHYHIEFRINGQPQSMSYNVDARASNGKIEEMDLRISEDQQKRLNS”: the protease stability score was determined as 0.06.

The sequence “EEDLLEVMERLYQALRENDPKKAMENVDPNARFKVGNKEYRGREQQSKEDTKKRDKMRVDMRIESMEIHGETVHIDATVVNQVNGQPYRQKVIIRARLHNGQIQELEFQLDPSVQEKVRQ” came in with a protease stability score of 0.538. “EEDLLRKLSKILHQQDTGNEETVEKNADPNARFEVGDHKIHGMDQAAREIASKIREIRQEKRIESVSVHGNKMQIHFTFTQEKNGQPQTRRATMVVVMSNGKIKSMKVQYDK” had a protease stability score of 0.697. Sequence “EEDNRKHAEDIWRAIRKGDEERLKQLFDKDVKFHVGEKEIHGRENYARSVKERREEIKWSVTLDDVHVRGEKIVIRYTFTENNNGRPRHNVQVLEMTVTNGRVVNVDAKDDK” showed a protease stability score of -0.148.

The sequence “EEDQERQAEKLIRILENGDEDKAKEQADPNARFEYGDKKYHGMSNFATEVKKLRDHARVEFDNIRVRAHGDKVRIRLDFKVNINGDPSRFNVHMFNQMHNGQFKQMYKDLDPTELEQIHK” yielded a protease stability score of -0.25. Under “EEDVSNQVRHAFDLHRSNNPENLEEMFDKNARIRIGDKTIHGREQYSETAEQEIREQKVEYKSIDVKAKNGRVHIRIDFVSNVNGRPKRDSMQQTYEIHNGRISHASIESDS” stands -0.151. On to “EEDVVEQLKDWYRAVNSGDEERLTQLMDPNAKAEVGDKRVHGMDEYARQQRTRNEKLRFQINSIEIRAKGNHVSVNVDANYHFDGQPRRDTWHIRMQFHNGRLKTLSVTMDPTLLREMEK”, for which the protease stability score is 0.931. Sequence “EEEAAHQFNKWLSLMKHGNEHKASEMLDKDAHIKVGDKTLQGREDVQRDVRRRKEELKFSMTIVDYKDHGDKARLTVEQTNDHNGRPRTRRANVTVHVSNGRVKEIVINDDS” yielded a protease stability score of -0.265. Take “EEEAFDRAQQFVRAMETGDTTKLEQLADKDVRFDVGDKEVQGREEYSKTVHELKKEMRFRYEFKHYTVTGDEVDARVEFEYEHNGQPRRTQAKVTFIFQGDKLESINMKESQ”: the protease stability score turned out to be 0.146. Under “EEEAHTHAEQWFRVLQTGDEERAMKMVDKNAQLQIGDKDIHGREDVRKYVHDRKNEQDVEIKRYSIEVSGNSFNVKIHVRMEHNGQPRTDVLDMKFEVSNGRLTKVSVQSNG” stands 0.021; under “EEEANKHLRQWWRNFRKGSEEKMKNLMDPNVRVVVGDKVYSGREQVMKMVRDQLTHARFDFDLERLSAHNGKIDITMKLVADINGKPVKVHVKADVQYSNGRIESIVLHVDPDQQRKLTE”, 2.19; under “EEEANRNVRKFEQALRHNDPHTLLELVDPNADLQIGNERIKGMHHAAKHLIDWMEEIRVQIRRVTFITRPNHAQLKRKVQAEVNGQPFEYTVEVVFNFHNGRVTEVHMRMDEDKQRKLRS”, 0.12. As to “EEEAREAVKRVMKAHETNDPDKMMQNFDPNAKLTIGDTELHGREEARKHWEDNLKEIEIRIETWHVEDEGDKATLKVVYVREHNGQPTRERAVVYLRVKNGKVQTVSNQSRK”, the protease stability score worked out at 0.292. The sequence “EEEAVRRYERMLRLVQNNNTEELNKQLDPNVEYDYGNHEIHGREQAVREMLKLQRKMRIEIQFDRVRHEGDKAVVKYTVLFDINGRPITNSATLYVKFKNGKIVYASAQMPEDFQRKVSS” registered a protease stability score of 0.876.

“EEEDAKRFKHLNERNDFTSLAKQVDEDATLRVGDKEIHGRERVTEFLEKAERAIDHVDIDSVDWSGDHVQFDAKYQVNGTTHHVIVRFRIHNGRIKYMQWDFTDDEVARRFLDNVQ”: the protease stability score amounted to 0.573. “EEEDEKRIKSLLEHNDFTRFAELVDKDAHAVIGDKTIHGREEIKKEIEEFKKRIDHLEWKRVDVRNGKVSARMQVTINGRTLDVYMRADVENGHIHYVEIHARTEEAQRVLDEVLS” displayed a protease stability score of 1.58. “EEEDLKQVRKFLDAERDNDEDRLRELVDPNARFKVGDKTYHGMEDYVREVVHRMRQMQFEVDSIDNTVEGDHVRMRIHRTYRHNGKPSTKVYVLKARLHNGKIKHMQQDDDK” gave a protease stability score of 0.152. “EEEDTKLMKQYADAVNNNNPDELRRQADENVRFEVGDNVFHGRKEYIKDVERKLRNIRITMNVKSLTVEGDKVNVTFEERHNKNGKPETFTAKARAHFHNGRIHSIRYEKDG” gave a protease stability score of 0.049. Regarding “EEEDVETAKQFIEAEEKGDEDRLVELADPNARFNVGDKNLHGREHAAREMRKHQEEADLRLEDVRLDVHNGRVDIELVFTHRHNGQPTRQKVKLTFEQHNGQLTHVQNDETK”, the protease stability score was determined as 0.558. For “EEEDVKRVEEDLHNGDPDRLRDLMDKDVSVEYGDKTVNGRENAAEIWEHIRRNVDRIRIVSMHVKNGKINFDLTAEVNGTKFQIRVVWELRNGRAKSVKIEVTDEEVKKLLDRLLQ” the value was 2.04; for “EEEDVRKAKKFIQLLNSNDQENLKTLADPNATFRYGDKHIHGMDRVNQYLDRVDHTMKRDIEVTSMSAQGDHVRIHAIMRFKVNGNPDQIDIIIVVVVENGRIKEVQIRMPEEDKRRVDR”, 0.416; for “EEEHAKHLNEVMERGDWERLAELADKDVKIRVGDKEYRGRELLERWNRKLYKKVDEVHIDSVHVRNGRITVNMEVNVNGDKVRAQFRIRIHNGKIKHINIQATSEENEERWQEMLD”, 1.5. Take “EEEKKNRAHQFLKAVERGDPEELRKQFDPNAHARVGDKRYHGMEEWAKDVMRRVRELRMSIKRLSVDVQGNDVKVNMNLVINRNGKPKEFREVWYFKIHNGHFVELHVQEEP”: the protease stability score is 0.477. On to “EEEKLEKMVKDVFEAVQKGNMEELKQYLKEDVRFQFGDNRYQGVDQYVKLMKTMTEQGVQFEFKKFQMKDNTVTMETEAKYADHEVRVKAEARYEGGRLDEARVELTEEAKEIYKKG”, for which the protease stability score worked out at 1.17.
